From article PMC1929070

Biological target: GST-XNRL (Xenopus laevis)
Assay: pull-down; Glutathione-Sepharose-bound GST-XNRL (or GST alone) incubated with affinity purified MYC fusion proteins in binding buffer (0.1% Triton X-100, 50 mM HEPES pH 7.5, 150 mM NaCl, 1% glycerol, 1.5 mM MgCl2, 5 mM EGTA) overnight at 4°C, washed three times; anti-MYC Western blot, bands quantified by Image J (retained/input, normalised to MYC-XOTX2); two independent experiments

fold binding relative to MYC-XOTX2 (retained/input ratio): 2.4 fold
Substance: MYC-XOTX5b (natural protein)
